test: yeast display, Sf9 membrane polyspecificity reagent, FACS + sequencing; frameworks hold sequencing errors
In short: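 Nanobodies from a synthetic yeast display library (Saccharomyces cerevisiae BJ5465), induced 36–48 hours with galactose, were stained 1 hour at 4 °C with 10% biotinylated, detergent-solubilized Sf9 membrane reagent, enriched on streptavidin microbeads, then FACS-sorted. Anti-HA (expression) and streptavidin (reagent binding) fluorescence set low and high (top ~1%) gates. Polyreactivity labels come from the gate of origin. Genes were colony-PCR amplified, MiSeq 2 × 250 sequenced and filtered by CDR length.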

Sequence	polyreactivity (PSR sort gate)
QDQLVESGGGLVQAGVSLRLSCAASGSTFAYITMGRYRQAPGKERELVAAISWRGTRTYYADSVKGRFTISRDNAKNNVYLQMNSLKPEDTAVYYCATKDGISYDYWVQGTQVTVSS	high polyreactivity
QVQLVESGGGLVQAGGSLRLSCAASGYTFYANAMGWYRQAPGKEREFVASITWSGGSTYYADSVKGRFTISRDNAKNTVYLQMNSLKPEDTAVYYCNTDLTYPYPNVEVLVYGFKLDYWGQGTQVTVSS	low polyreactivity
QVQLVESGGGLVQAGGSLRLSCAASGITFTYYAMGWYRQAPGKERELVAGISRGGSTYYADSVKGRFTISRDNAKNTVYLQMNSLKPEDTAVYYCAATSYRRTGYNYWGQGTQVTVSS	high polyreactivity
QVQLVESGGGLVQAGGSLRLSCAASGRTFVYYAMGWYRQAPGKERELVAAISRSGSTYYADSVKGRFTISRDNAKNTVYLQMNSLKPEDTAVYYCAARSVYTGRPYYYWGQGTQVTVSS	high polyreactivity
QVQLVESGGGLVQAGGSLRLSCAASGRTFSGYAMGWYRQAPGKERELVATITWSSGSTYYADSVKGRFTISRDNAKNTVYLQMNSLKPEDTAVYYCNADQGSALRWSYDYWGQGTQVTVSS	low polyreactivity
QVQLVESGGGLVQAGGSLRISCAASGSIFRIYAMGWYRQAPGKERELVAAISWTGGSTYYADSVKGRFSISRDNAKNTVYLQMNSMKPDDTAVYYCASRPRYKFSAYEYWGQGTQVTVSS	high polyreactivity
QVQLVESGGGLVQAGGSLRLSCAASGFIFYYAMGWYRPAPGKERELVAGITESDGSTNYADSVKGRFTISRDNAKNTVYLQMNSLKPEDTAVYYCAKDASSLRFDYWGQGTQVTVSS	low polyreactivity
QVQLVESGGGLVQAGGSLRLSCAASGSTFKRYAMGWYRQAPGKERELVAANSASGGSTSYADSVKGRFTISRDNAKITVYLQMNSLTPEDTAVYYCAPYYWLYSSSYDYWGQGTQVTVSS	high polyreactivity
QVQLVESGGGLVQAGGSLRLSCADSRSTFYIYAMGWYRQAPGKERELVAAIRRSGGSTYYADSVKGRFTISRDNAKNTVYLQMISLKPEDTAVYYCATRYLWRPRPYDYWGQGTQVTVSS	high polyreactivity
QVQLEESGGGLVQAGGSLSLSSAASGSIFRNYAKGWYRQAPGKERELVAAISVRGGSTYYADSVKGRFTISRDNAKNTVYLQMNSLKPEDTAVYYCNARTYYPVYYRDGGYWGQGTQVTVSS	high polyreactivity
QVQLVESGGGLFQAGGSLRLSCAASGFIFPINAMGWYRQAPGKERELVAAITSGGRTNYADSVKGRFTISRDNAKNTVYLQMNSLKPEDTAVYYCNAVVFVLNVEYYPWLLNNYWGQGTQVTVSS	low polyreactivity
QVQLVESGGGLVQAGGSLRLSCAASGSTFRQYAMGWYRQAPGKERELVAGISYRGGRTYYADSVKGRFTISRDNAKNTVYLQMNSLKPEDTAVYYCNALRHYRDISVDGDDYWGQGTQVTVSS	high polyreactivity
QVHLVESGGGLVHAGGSLRLSCAASRSTFRNYAMGWYRQAHGKEREFVATINWIGGTTYYADSVKGRFTLSRDNAKNTVDLQMNSLKPVDTGVYYCAAQFDYYPWGGYWGQGTQVTVSS	high polyreactivity
QVQLVESGGGLVQAGGSLRLSCAASGFTFARYAMGWYRQAPGKERELVAAISRGTTTYYADSVKGRFTISRDNAKNTVYLQMNILKPDDTAVYYCAAVTTRTYPGRYYYWGQGTQVTVSS	high polyreactivity
QVQLVESGGGLVQAGGSLRLSCAASGIIFAYYAMGWYRQAPGKERELVASISSGGTTKYADSVKGRFTISRDNAKNTVYLQMNSLKPEDTAVYYCAAEHRWRSWDMDYWGQGTQVTVSS	low polyreactivity
QVQLVESGGGLVQAGGSLRLSCAASGRIFGKYAMGWYRQAPGKERELVAAISRSGASTYYADSVKGRFTISRDNAKNTVYLQMNSLKPEDTAVYYCAAVPPYNYRVRVYYWGQGTQVTVSS	high polyreactivity
QVQLVESAAGLVQAGGSLRLSCAASGFIFWYYAMGWSRQAPGKERELVAAINSSGGSTYYADSVKGRFSISRDNAKNTVYLQMNSLKPEDSAVYYCAARAYQRGNYWGQGTQVTVSS	high polyreactivity
QVQLVESGGGLVQAGGSLRLSCAASGGIFGTYAMGWYRQAPGKEREFVAAITSGDSTYYADSVKGRFTISRDNAKNTVYLQMNSLKPEDTAVYYCAVGSTDRVSAQGSYFTYDYWGQGTQVTVSS	low polyreactivity
QVQLVESGGGLVQAGGSLRLSCAASGFTFSGYSMGWYRPAPGKERELVAAITKSGGSTYYADSVKGRFTISRDTAKNTVYLQMNSLKPEDTAVYYCNADVLYTTEGDYWGQGTQVTVSS	high polyreactivity
QVQLVESGGGLVQAGGSLRLSCAASGSIFGLYAMGWYRQAPGKERELVAAITASDGSTYYADSVKGRFTISRDNAKNTVYLQMNSLKPEDTADYYCNADAYSGYFLFDYWGQGTQVTVSS	low polyreactivity
QVQLVESGGGLVQAGGSLRISCAASGRTFGPYAMGWYRQAPGKERELGAAITSSGGSTYYADSVKGRFTISRDNAKNTVYLQMNSLKPEDTAVFYCNKLYWRQSLDYDYWGQGTQVTVSS	low polyreactivity
QVQLVESGGGLVQAGGSLRLSSAASGFTFVINDMGWYRQAPGKEMELVADITSGGDTYYADSVKGRFTISRDNAKNTVYLQMNSLKPEDTAVYYCAADIYPDWIYLLYGYWGQGTQGTVSS	low polyreactivity

Sequence	polyreactivity (PSR sort gate)
QVQLVESGGGLVQAGGSLRLSCAASGSIFPWNAMGWYRKAHGKARELVAVISQNGGRTYYADSVKGSFTISRDKAKNTVYLQMNSLKPEDTAVYYCAARPRLPRQIGGDGHLDDYWGQGTQVTVSS	high polyreactivity
QVQLVESGGGLVQAGGSLRLSCAASGRIVTAYAMGWYRPAPGKEREFVAAISSSGGSTYADSVKGRFTISRDNAKNTVYLQINSLKPEDTAVYYCAARYGFYWFPGYYYWGQGTQVTVSS	low polyreactivity
QVQLVESGGGLVQAGGSLRLSCAASGRTFPRNGMGWYRQAAGKERELVAAICWSGGRTYYADSVKGRFTISRDNAKNTVYLQMNSLKPEDTAVYYCNALYFRKGGYWGQGTQVTVSS	high polyreactivity
QVQLVESGGALVQAGGSLRLSCAASGSTLVTNAMGWYRKAPGKERELVAAITFSGGTTYYADSVKGRFTISRDNAKNTVYLQMNSLTPEDTAVYYCGAEIWLEYVGYDYWGQGTQVTVSS	high polyreactivity
QVQLQESGGGLVQAGGSQRLSCAASGYIFYFQYMGWYRQAPGKEREFVAAISDGANTNYADSVKGRFTISRDNAKNTEYLQMNSLKPEDTAVYYCAAGLSTGTIAYGYNYWRQGTQVTVSS	low polyreactivity
QVQLVESGGGLVQAGGSLRLSCAASGRTFLPYAMGWYRQAPGKERELVADINWGGGSTYYADSVKGRFTISRDNATNTVYLQMNSLKQEDTALYYCATDDGYQYWYYQWYYWGQGTQVTVSS	low polyreactivity
QVQLVESGGGLVQAGGSLRLSCAASGSIFWGNAMGWYRQAPGKERELVAAITGSGGSSYYADSVKGRFTISRDNAKNRVYLLMNSVKPEDTAVYYCADLFRTFYYWGQGTQVTVSS	high polyreactivity
QVQLVESGGGLVQAGGSLRLSCAASGRIFTNYAMGWYREAPGKERELVAAINYSGGNTYYADSVKGRFTISRDNAKNTVYLQMNSLIPEDTAVYYCNAPILPRYRRYDYWGQGTQVTVSS	low polyreactivity
QVQLVESGGGLVQAGGSLRLSCAASGFIFYRYAKGWYRQPPGKERELVAAITKSGTSTYYADSVKGRFTISRDNAKNTVYLQMNSLKPEDTAVYYCNADVRSRSRGSSGYDYWGQGTQVTVSS	low polyreactivity
QVQLVESGGGLVQAGASLRLSCAASGIIFNVKAMGWYRQAPGKERELVAAITSGANTYYADSVKGRFTISRDNAKNTVYLQMNSLKPEDSAVYYCNKVGSNSVGPGYDYWGHGTQVTVSS	high polyreactivity
QVQLVESGGGLVQAGGSLRLSCAASGSTFYFNAMGWYRQAPGKERELVADINYSGTSTYYADSVKGRFTISRDNAKNTVYLQMTSLKPEDTAVYYCAKSLPSSNTSTSYDYWGQGTQVTVSS	low polyreactivity
QVQLVESGGGLVQAGGSLRLSCAASGRTFQEYAMGWYRQAPGKERELVADISDGGSTNYADSVKGRFTISRDNAKNTVYLQMYRLKPEDTAVYYCAADQYHGVGINFRSDYDYWGQGTQVTVSS	low polyreactivity
QVQLVDSGGGLVQAGGSLRLSCAASGSIIGLYAMGWYRQAPGKERELVAAITTTGGSTYYADSVKGRFTISRDNAKNTVYLQMNSLKPEDTAVYYCNADYVAYGPEYDYWGQGTQVTVSS	low polyreactivity
QVQLVESGGGLVQAGGSLRLSCAASGSTVPQYTMGWYRQAPGKERELVAAITKSGGSTYYADSVKGRFTISRDNAKNTVYLQMNSLKPEDTAVYYCNRRWGWRLYDYWGQGTQVTVSS	high polyreactivity
QGQLVESGGGLVQAGGRLRLTCAASGSIFAGNAMGWYRQAPGKERELVAAIRWSTGSTYYADSVKGRFTISRDNAKNTVYLQLNSLKPEDTAVYYCAATDTTFYGIVRYEYWGQGTQVTVSS	low polyreactivity
QVQLVESGGGLVQAGGSLRLSCAASGSIFDYYTMGWYRQAPGKEREFVAGISDSGGSTNYADSVKGRFTISRDNAKNTVYLQMNSLKPEDTAVYYCNAEYVGWFYKYDYWGQGTQVTVSS	high polyreactivity
QVQLVESGGGIVQAGGSLRLSCAASGLIFPWTYAMGWYRQAHGKEREFVAAITSSDGSTYYADSVKGRFTISRDNAKNTVYLQMNSLKPEDTAVYYCAAVGWDYDWDYYYWGQGTQVTVSS	high polyreactivity
QVQLVESGGGLVQAGGSLRLSCAASGRTFYVYAMGWYRQAPGKERELVAAISQDDGGTYYADSVKGRFTISRDNAKNTVYLQMNSLKPEDTAVYYCAAKEWRYGYDYGYWGQGTQVTLSS	low polyreactivity
QVQLVESGGGLVQAGGSLRLSCAASGSTFFHYVMGWYRQAPGKEREVVAAIRWSGGRTRYADSVKRRFTISRDNAKITVYLQMNSLIPEDTAVFYCAAYRLSKPFYKYDYWGQGTQVTVSS	high polyreactivity
QVQLVESGGGLVQAGGSLRLSCAASGLIFWGYTMGWYRPAPGKERELVASITTSGSTYYADSVKGRFTISRDNAKNTVYLQMNSLKPEDTAVYYCAVDNYYTPWYPYLGYDSWGQGTQVTVSS	low polyreactivity
QVQLVESGGGLVQAGGSLRLSWAASGSTLSLYAMGWYRQAPGKERELVAAITSSGGTYYADSVKGRFTISRDNAKNTVYLQMNSLKPEVTAVYYCNAYAKDARSYGYHRVNYWGQGTQVTVSS	high polyreactivity

From the nanobody polyreactivity screen of Harvey et al. (2022)
